Consider two molecules from publication PMC8683085, “Serine ADP-ribosylation marks nucleosomes for ALC1-dependent chromatin remodeling” (eLife, 2021).

The target in experiment [1] is PARP1 (full-length, N-terminal 6xHis-tag) (UniProt P09874).
The target is the same in experiment [2]. The source holds these as a separate data set.
Experiment [3] addresses H2BS6ADPr1 nucleosome, P68431.

PARP1 (full-length, N-terminal 6xHis-tag), sequence (P09874 whole entry): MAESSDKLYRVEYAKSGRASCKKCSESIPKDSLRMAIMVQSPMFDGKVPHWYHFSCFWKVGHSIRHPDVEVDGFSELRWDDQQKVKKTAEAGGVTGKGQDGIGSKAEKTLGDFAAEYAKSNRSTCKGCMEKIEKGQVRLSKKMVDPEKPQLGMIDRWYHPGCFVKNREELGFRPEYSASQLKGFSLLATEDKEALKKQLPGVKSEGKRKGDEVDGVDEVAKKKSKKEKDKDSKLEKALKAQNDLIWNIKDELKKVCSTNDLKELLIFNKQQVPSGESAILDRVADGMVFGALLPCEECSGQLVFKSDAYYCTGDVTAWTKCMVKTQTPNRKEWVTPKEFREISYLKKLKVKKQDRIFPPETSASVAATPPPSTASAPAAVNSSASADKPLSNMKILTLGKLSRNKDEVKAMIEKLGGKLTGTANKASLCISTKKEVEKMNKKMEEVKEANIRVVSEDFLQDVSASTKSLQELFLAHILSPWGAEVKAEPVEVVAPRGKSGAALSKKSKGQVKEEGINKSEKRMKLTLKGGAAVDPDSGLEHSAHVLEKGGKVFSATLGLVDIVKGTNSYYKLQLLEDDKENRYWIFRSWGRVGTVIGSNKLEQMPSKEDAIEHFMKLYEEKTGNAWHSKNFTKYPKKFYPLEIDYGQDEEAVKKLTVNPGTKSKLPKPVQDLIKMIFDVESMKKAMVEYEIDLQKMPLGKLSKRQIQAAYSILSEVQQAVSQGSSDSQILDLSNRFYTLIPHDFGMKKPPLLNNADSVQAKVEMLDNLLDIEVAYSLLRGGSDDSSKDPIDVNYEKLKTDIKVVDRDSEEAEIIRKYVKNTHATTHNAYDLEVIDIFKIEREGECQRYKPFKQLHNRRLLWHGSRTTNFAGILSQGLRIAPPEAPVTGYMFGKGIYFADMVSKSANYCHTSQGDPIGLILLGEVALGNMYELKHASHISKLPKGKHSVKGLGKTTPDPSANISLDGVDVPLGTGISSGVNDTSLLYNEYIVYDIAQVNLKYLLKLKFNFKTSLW

B1: FLAG-HPF1 (amino acids 27-346) (natural protein)
chain: KFCEADVSSDLRKEVENHYKLSLPEDFYHFWKFCEELDPEKPSDSLSASLGLQLVGPYDILAGKHKTKKKSTGLNFNLHWRFYYDPPEFQTIIIGDNKTQYHMGYFRDSPDEFPVYVGINEAKKNCIIVPNGDNVFAAVKLFLTKKLREITDKKKINLLKNIDEKLTEAARELGYSLEQRTVKMKQRDKKVVTKTFHGAGLVVPVDKNDVGYRELPETDADLKRICKTIVEAASDEERLKAFAPIQEMMTFVQFANDECDYGMGLELGMDLFCYGSHYFHKVAGQLLPLAYNLLKRNLFAEIIEEHLANRSQENIDQLAA
In turn, B1 gave a share of mono-ADP-ribosylated H3 (1-20) peptide among the products of the PARP1 ADPr reaction (RP-HPLC), HPF1 from 5 μM to 100 μM in experiment [1] of 94%. The molecule also had an inhibition of PARP1-catalyzed ADP-ribose polymerization from the H3S10ADPr1 peptide (RP-HPLC); HPF1 concentration at 50% inhibition in experiment [2] of 14 µM.

B2: ALC1 (full-length, 6xHis-1xFLAG-ALC1), Q86WJ1 1-897 (enzyme)
chain: MERAGATSRGGQAPGFLLRLHTEGRAEAARVQEQDLRQWGLTGIHLRSYQLEGVNWLAQRFHCQNGCILGDEMGLGKTCQTIALFIYLAGRLNDEGPFLILCPLSVLSNWKEEMQRFAPGLSCVTYAGDKEERACLQQDLKQESRFHVLLTTYEICLKDASFLKSFPWSVLVVDEAHRLKNQSSLLHKTLSEFSVVFSLLLTGTPIQNSLQELYSLLSFVEPDLFSKEEVGDFIQRYQDIEKESESASELHKLLQPFLLRRVKAEVATELPKKTEVVIYHGMSALQKKYYKAILMKDLDAFENETAKKVKLQNILSQLRKCVDHPYLFDGVEPEPFEVGDHLTEASGKLHLLDKLLAFLYSGGHRVLLFSQMTQMLDILQDYMDYRGYSYERVDGSVRGEERHLAIKNFGQQPIFVFLLSTRAGGVGMNLTAADTVIFVDSDFNPQNDLQAAARAHRIGQNKSVKVIRLIGRDTVEEIVYRKAASKLQLTNMIIEGGHFTLGAQKPAADADLQLSEILKFGLDKLLASEGSTMDEIDLESILGETKDGQWVSDALPAAEGGSRDQEEGKNHMYLFEGKDYSKEPSKEDRKSFEQLVNLQKTLLEKASQEGRSLRNKGSVLIPGLVEGSTKRKRVLSPEELEDRQKKRQEAAAKRRRLIEEKKRQKEEAEHKKKMAWWESNNYQSFCLPSEESEPEDLENGEESSAELDYQDPDATSLKYVSGDVTHPQAGAEDALIVHCVDDSGHWGRGGLFTALEKRSAEPRKIYELAGKMKDLSLGGVLLFPVDDKESRNKGQDLLALIVAQHRDRSNVLSGIKMAALEEGLKKIFLAAKKKKASVHLPRIGHATKGFNWYGTERLIRKHLAARGIPTYIYYFPRSKSAVLHSQSSSSSSRQLVP
modifications: here or on the partner: mono-ADP-ribose on S6
In the case of B2, the ALC1 nucleosome remodeling rate constant (REA assay) in experiment [3] was < 0.0003 min⁻¹.
